Experimental data as given in patent publication US12145987B2, “Method for depleting cytotoxic T cells using an anti-LAG-3 antibody composition” (Daiichi Sankyo Company, Limited, priority 2017, dated 2024).

T1: binding of LAG-3 to MHC class II molecules (293T-hLAG-3 cells / Raji cells) (Homo sapiens, UniProt P18627)
T1 construct: expressed in transfected cells; host or cells: 293T cells, transient transfection (Lipofectamine 2000)
T1 sequence (P18627 23-525): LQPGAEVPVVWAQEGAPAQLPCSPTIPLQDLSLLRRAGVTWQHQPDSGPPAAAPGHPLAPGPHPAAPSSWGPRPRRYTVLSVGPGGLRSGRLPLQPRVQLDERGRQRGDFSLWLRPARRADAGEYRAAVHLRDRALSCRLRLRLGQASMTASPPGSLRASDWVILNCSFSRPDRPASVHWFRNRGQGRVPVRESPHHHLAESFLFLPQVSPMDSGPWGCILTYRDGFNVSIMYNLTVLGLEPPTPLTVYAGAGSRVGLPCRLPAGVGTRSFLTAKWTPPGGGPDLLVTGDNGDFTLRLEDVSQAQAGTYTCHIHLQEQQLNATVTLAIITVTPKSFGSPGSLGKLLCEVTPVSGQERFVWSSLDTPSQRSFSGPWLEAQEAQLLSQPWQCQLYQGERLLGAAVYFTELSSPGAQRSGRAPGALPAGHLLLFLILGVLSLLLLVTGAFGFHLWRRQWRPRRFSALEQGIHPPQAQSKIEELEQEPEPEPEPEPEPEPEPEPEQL

B1: rLA204: anti-human LAG-3 rat monoclonal antibody; heavy chain variable region SEQ ID No: 2, light chain variable region SEQ ID No: 4 (antibody, listed as Rattus norvegicus, V domains shown)
VH: EVELVESGGGLVQPGRSMKLSCAASGFTFRTYGMAWVRQAPTKGLEWVASISTGGGSTYYRDSVKGRFTISRDNAKSTLYLQMDSLRSEDTATYYCTTDLINYPGIGGFAFWGQGTLVTVSS
VL: NIVMTQSPKSMSISVGDRVTMNCKASQNVYNNIAWYQQKPGKSPKLLIYYASNRYTGVPDRFTGSGSGTDFTLTIHSVQAEDAAFYYCQRLYNSPPTFGGGTKLELKRA
B2: rLA212: anti-human LAG-3 rat monoclonal antibody; heavy chain variable region SEQ ID No: 6, light chain variable region SEQ ID No: 8 (antibody, listed as Rattus norvegicus, V domains shown)
VH: EVQLVESGGGLVQPGRSLKLSCAASGFTYRSYVMAWVRQAPTRGLEWVASISTGGGNTYYRDSVKGRFTISRDNAKNTLYLQMDSLRSEDTATYYCAEDMSNSGYGLFDYWGQGVMVTVSS
VL: NIVMTQSPKSMSISVGDRVTMNCKAGQNVDNNIAWYQKKPGQSPKLLIYYASNRNTGVPDRFTGGGYGTDFTLTINSVQAEDAAFYYCQRISNSPYTFGAGTELELKRA
B3: rLA225: anti-human LAG-3 rat monoclonal antibody; heavy chain variable region SEQ ID No: 10, light chain variable region SEQ ID No: 12 (antibody, listed as Rattus norvegicus, V domains shown)
VH: EVQLVESGGGLVQPGRSMKLSCVASGFTFSNYYMAWVRQAPTKGLEWVASISTGGGNTYYRDSVKGRFTISRDNAKSTLYLQMDSLRSEDTATYYCARPPYGYNYGWFTYWGQGTLVTVSS
VL: DIQMTQSPASLSASLGETVTIECRASEDIHNGLVWYQQKPGKSPQLLIYNANSMHTGVPSRFSGSGSGTQYSLKINSLQSEDVASYFCQQYYNYPRTFGGGTKLELKRA
B4: rLA869: anti-human LAG-3 rat monoclonal antibody; heavy chain variable region SEQ ID No: 14, light chain variable region SEQ ID No: 16 (antibody, listed as Rattus norvegicus, V domains shown)
VH: EVQLVESGGGLVQPGRSLKLSCAASGFTYRTYVMAWVRQGPTQGLEWVASISTGGVSTYYRDSVKGRFTISRDNAKNTLYLQMDSLRSEDTATYYCAKDMLNGYNSQGLFDYWGQGVMVTVSS
VL: NIVMTQSPKSMSISVGDRVTMNCRASQNVDNTIAWYQQKPGQSPKLLIYFASDRYTGVPDRFTGGGYGTDFTLTINSVQAEDAAFYYCQRIYNSPLTFGSGTKLEIRRA
B5: rLA1264: anti-human LAG-3 rat monoclonal antibody; heavy chain variable region SEQ ID No: 18, light chain variable region SEQ ID No: 20 (antibody, listed as Rattus norvegicus, V domains shown)
VH: EVQLVESGGGLVQPGRSLKLSCAASGFTFSSYYMAWVRQAPTKGLEWVAYISNGGYSTYYRDSVKGRFTISRENAKSTLYLQMDSLRSEDTATYYCTITDHSGYRFTYWGQGTLVTVSS
VL: DIQMTQSPSLLSASVGDRVTLSCKASQSIYNSLAWYQQKLGEAPKLLIYDANSLQTGIPSRFSGSGSGTDFTLTISSLQPEDVATYFCQKYYSGNTFGAGTKLELKRA

These molecules were tested against T2, binding of LAG-3 to MHC class II molecules (Homo sapiens, UniProt P18627) (assay: LAG-3/MHC class II binding test (LAG-3-Fc binding to Raji cells, flow cytometry)). Conditions: rat antibodies evaluated at 10 μg/mL.
T2 construct: purchased R&D Systems, Inc
Protocol: This was conducted according to a previous report (Non Patent Literature 8). That is, 20 μL/well of LAG-3-Fc (manufactured by R&D Systems, Inc.) diluted with RPMI1640 containing 10% FBS to 25 nM was added to a 96-well U-bottom microplate, and 20 μL/well of the hybridoma culture supernatant was added thereto, followed by stirring and standing at 4° C. for 20 minutes. Then, 10 µL/well (2.5×10^5 cells/well) of Raji cells, which endogenously highly express MHC class II molecules, was added thereto, followed by stirring and standing at 4° C. for a further 30 minutes. The cells were washed twice with PBS or a FACS buffer, then an Anti-Human IgG PE conjugate (manufactured by Jackson ImmunoResearch Laboratories, Inc.) diluted 200-fold with a FACS buffer was added thereto for suspension, followed by standing at 4° C. for 20 minutes. After washing with PBS or a FACS buffer, the cells were resuspended in PBS containing 1 to 2% paraformaldehyde, followed by detection using a flow cytometer (CantoII: manufactured by Becton, Dickinson and Company or FC500: manufactured by Beckman Coulter Inc). The data was analyzed using FlowJo (manufactured by Tree Star Inc.), and the percentage of inhibition was calculated by the following formula. Percentage of inhibition (%)=100−(A−B)/(C−B)×100 • A: Mean fluorescence intensity of each sample well • B: Mean fluorescence intensity of background
When adding LAG-3-Fc and the antibody, 20 μL of a medium was added each time. Except for that, the same operation as in the sample well was performed. • C: Mean fluorescence intensity of maximum binding
When adding the antibody, 20 μL of a medium was added thereto.

T2 sequence (P18627 with tags, fused parts or gaps limits assumed): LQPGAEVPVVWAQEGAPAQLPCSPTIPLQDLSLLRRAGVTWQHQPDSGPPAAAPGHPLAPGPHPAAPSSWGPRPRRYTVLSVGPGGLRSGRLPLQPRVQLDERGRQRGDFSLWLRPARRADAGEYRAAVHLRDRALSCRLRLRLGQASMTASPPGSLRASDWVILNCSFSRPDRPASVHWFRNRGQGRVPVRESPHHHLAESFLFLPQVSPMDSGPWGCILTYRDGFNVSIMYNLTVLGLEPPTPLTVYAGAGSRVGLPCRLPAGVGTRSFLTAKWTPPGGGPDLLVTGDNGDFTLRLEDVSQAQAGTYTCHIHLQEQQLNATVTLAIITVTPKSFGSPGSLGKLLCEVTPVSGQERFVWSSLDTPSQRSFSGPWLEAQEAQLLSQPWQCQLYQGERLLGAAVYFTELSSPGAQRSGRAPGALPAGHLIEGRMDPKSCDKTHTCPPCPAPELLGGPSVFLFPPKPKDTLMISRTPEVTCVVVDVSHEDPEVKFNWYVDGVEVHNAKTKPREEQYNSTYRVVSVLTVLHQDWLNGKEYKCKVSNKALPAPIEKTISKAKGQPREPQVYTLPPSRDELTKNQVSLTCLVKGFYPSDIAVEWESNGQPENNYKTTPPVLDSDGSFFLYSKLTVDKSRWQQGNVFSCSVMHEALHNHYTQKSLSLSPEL

Inhibitory activity in the LAG-3/MHC class II binding test, almost no inhibitory activity:
B1
B2
B3
B4
B5

These molecules were tested against T1, binding of LAG-3 to MHC class II molecules (293T-hLAG-3 cells / Raji cells) (assay: 293T-hLAG-3/Raji cell adhesion test). Conditions: 10 μg/mL.
Assay type: cell-based
Description: In the LAG-3/MHC class II binding test according to Example 2)-3, the binding of the secondary antibody Anti-Human IgG PE conjugate for detecting binding of LAG-3-Fc to Raji cells could be inhibited by steric hindrance caused by binding of the anti-LAG-3 antibody to LAG-3-Fc, and thus the possibility of apparently showing a low fluorescence intensity cannot be completely excluded, despite the antibody not actually directly inhibiting the binding of LAG-3/MHC class II. Therefore, as an evaluation system without using a secondary antibody for detection, the following 293T-hLAG-3/Raji cell adhesion test system was constructed to evaluate the antibody.
Human LAG-3 expression plasmid pcDNA3.1/hLAG-3 was introduced into 293T cells using Lipofectamine 2000 (manufactured by Life Technologies Corp.), and the cells were inoculated onto a BioCoat poly-D-lysine-coated 96-well microplate (manufactured by Becton, Dickinson and Company) and cultured overnight. Meanwhile, Raji cells were labeled in a medium (RPMI1640 containing 10% FBS) with fluorescent dye BCECF-AM (manufactured by DOJINDO LABORATORIES, used at 10 μM) at 37° C. for 1 hour, followed by washing and then suspending in a medium to 1.6×10^6 cells/mL. After the transfection, the medium of the cells (293T-hLAG-3 cells) cultured overnight was removed, and 50 μL/well of a medium and 25 μL/well of an antibody solution were added thereto, followed by pre-incubation at 37° C. for 30 minutes. Thereafter, 25 μL/well of the BCECF-AM labeled Raji cells was added thereto, followed by centrifugation at 900 rpm for 30 seconds and incubation at 37° C. for 1 hour. After the reaction, the well was washed with medium two to three times to remove nonadherent cells, and the cells were lysed in 100 µL/well of a Tris buffer (25 mM, pH 8.0) containing 0.1% NP-40, to measure the fluorescence intensity of the well with a plate reader (ENVISION: manufactured by PerkinElmer Inc). The percentage of inhibition was calculated by the following formula.
Percentage of inhibition (%)=100−(A−B)/(C−B)×100 • A: Fluorescence intensity of each sample well • B: Fluorescence intensity of background
When adding the Raji cells and the antibody, a medium was added thereto. Except for that, the same operation as in the sample well was performed. • C: Fluorescence intensity of maximum binding
When adding the antibody, a medium was added thereto.

Inhibitory activity in the 293T-hLAG-3/Raji cell adhesion test, almost no inhibitory activity:
B1
B2
B3
B4
B5
